# Laboratory results published in patent US11851495 (Boehringer Ingelheim, dated 2023).
# Numbering of substitutions follows the chain as printed.
# B1: anti-CDH17H2 antibody (antibody, V domains shown)
# VH: QVQLVQSGAEVKKPGSSVKVSCKVSGYTFTDHTIHWMKQRPGQGLEWIGYIYPRDVITQYNEKFKGKVTLTADKSTSTAYMELSSLRSEDTAVYLCARWGYFYGSRSYYFDYWGQGTTVTVSS
# VL: DIQMTQSQSSLSASVGDRVGITCKASQNVGTAVAWYQQKPGKAPKLLIYSASNRYTGVPSRFSGSGSGTDFTLTISSLQPKDFATYFCQQYSSYPWTFGQGTKLEIK
# notes: also called parental CDH17 antibody
# B2: anti-TRAILR2 antibody (anti-TR2v2) (antibody, V domains shown)
# VH: EVQLVQSGGGVERPGGSLRLSCAASGFTFDDYGMSWVRQAPGKGLEWVSGINWNGGSTGYADSVKGRVTISRDNAKNSLYLQMNSLRAEDTAVYYCAKILGAGRGWYFDLWGKGTTVTVSS
# VL: SSELTQDPAVSVALGQTVRITCQGDSLRSYYASWYQQKPGQAPVLVIYGKNNRPSGIPDRFSGSSSGNTASLTITGAQAEDEADYYCNSRDSSGNHVVFGGGTKLTVL
# B3: CDH17A6/TR2v2-(IgG1 KO) (bispecific antibody)
# heavy: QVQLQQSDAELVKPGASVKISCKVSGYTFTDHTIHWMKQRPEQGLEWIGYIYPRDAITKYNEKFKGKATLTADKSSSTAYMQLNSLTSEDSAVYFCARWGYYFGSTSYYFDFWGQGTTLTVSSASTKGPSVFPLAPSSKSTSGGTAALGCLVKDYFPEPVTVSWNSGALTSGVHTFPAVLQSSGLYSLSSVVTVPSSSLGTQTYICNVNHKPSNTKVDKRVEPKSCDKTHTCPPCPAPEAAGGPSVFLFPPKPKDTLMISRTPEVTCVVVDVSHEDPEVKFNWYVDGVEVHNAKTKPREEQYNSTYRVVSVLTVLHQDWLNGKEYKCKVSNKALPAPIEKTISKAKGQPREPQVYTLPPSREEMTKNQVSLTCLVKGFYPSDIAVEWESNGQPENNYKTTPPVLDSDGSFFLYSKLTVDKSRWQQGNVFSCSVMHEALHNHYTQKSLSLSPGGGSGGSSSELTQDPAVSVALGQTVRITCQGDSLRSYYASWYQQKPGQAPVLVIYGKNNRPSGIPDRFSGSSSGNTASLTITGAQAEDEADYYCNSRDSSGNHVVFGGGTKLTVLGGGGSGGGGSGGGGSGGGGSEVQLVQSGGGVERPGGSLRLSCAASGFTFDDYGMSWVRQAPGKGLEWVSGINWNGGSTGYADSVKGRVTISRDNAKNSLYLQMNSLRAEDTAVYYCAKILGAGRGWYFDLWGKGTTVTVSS
# light: DIVMTQSQKFMSTTVGDRVSITCKASQNVGTGVVWYQQRPGQSPKLLIYSPSNRYTGVPDRFTGSGSGTDFTLTITNIQSEDLADYFCQQYSTYPWTFGGGTKLEIKRTVAAPSVFIFPPSDEQLKSGTASVVCLLNNFYPREAKVQWKVDNALQSGNSQESVTEQDSKDSTYSLSSTLTLSKADYEKHKVYACEVTHQGLSSPVTKSFNRGEC
# B4: CDH17E2/TR2v2-(IgG1 KO) (bispecific antibody)
# heavy: not shown
# light: B3 light with S20N, G32A, V34A, R39K, P51A, I78M, E81K, T93S
# B5: CDH17E9/TR2v2-(IgG1 KO) (bispecific antibody)
# heavy: not shown
# light: DIVMTQSQTFMSTTVGDRVSITCKASQNVGTALAWYQQKPRQSPKLLIYSASNRFTGVPDRFTGSGSGTDFTLTISNMRSEDLADYVCQQYSTYPLTFGSGTKLEIRRTVAAPSVFIFPPSDEQLKSGTASVVCLLNNFYPREAKVQWKVDNALQSGNSQESVTEQDSKDSTYSLSSTLTLSKADYEKHKVYACEVTHQGLSSPVTKSFNRGEC
# B6: CDH17H2/TR2v2-(IgG1 KO) (bispecific antibody)
# heavy: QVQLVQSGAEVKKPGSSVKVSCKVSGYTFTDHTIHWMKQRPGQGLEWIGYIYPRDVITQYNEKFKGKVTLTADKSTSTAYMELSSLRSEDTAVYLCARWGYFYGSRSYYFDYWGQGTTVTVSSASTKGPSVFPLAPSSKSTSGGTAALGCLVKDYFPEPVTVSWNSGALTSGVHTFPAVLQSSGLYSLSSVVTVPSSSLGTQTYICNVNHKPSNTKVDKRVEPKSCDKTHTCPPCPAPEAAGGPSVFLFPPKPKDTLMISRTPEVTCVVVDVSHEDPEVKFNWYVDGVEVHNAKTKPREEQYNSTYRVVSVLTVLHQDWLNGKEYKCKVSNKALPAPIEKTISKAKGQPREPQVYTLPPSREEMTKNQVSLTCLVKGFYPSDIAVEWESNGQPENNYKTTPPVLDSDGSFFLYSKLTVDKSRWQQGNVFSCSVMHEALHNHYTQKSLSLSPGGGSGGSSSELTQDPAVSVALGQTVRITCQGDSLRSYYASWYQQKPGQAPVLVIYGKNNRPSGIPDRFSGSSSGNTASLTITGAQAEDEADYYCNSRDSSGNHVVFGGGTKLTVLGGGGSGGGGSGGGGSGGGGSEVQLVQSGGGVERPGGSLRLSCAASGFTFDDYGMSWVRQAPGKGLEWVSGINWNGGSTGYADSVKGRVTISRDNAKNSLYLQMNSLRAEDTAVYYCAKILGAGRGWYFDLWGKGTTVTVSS
# light: DIQMTQSQSSLSASVGDRVGITCKASQNVGTAVAWYQQKPGKAPKLLIYSASNRYTGVPSRFSGSGSGTDFTLTISSLQPKDFATYFCQQYSSYPWTFGQGTKLEIKRTVAAPSVFIFPPSDEQLKSGTASVVCLLNNFYPREAKVQWKVDNALQSGNSQESVTEQDSKDSTYSLSSTLTLSKADYEKHKVYACEVTHQGLSSPVTKSFNRGEC
# B7: CDH17H2/TR2v5-(IgG1 KO) (bispecific antibody)
# heavy: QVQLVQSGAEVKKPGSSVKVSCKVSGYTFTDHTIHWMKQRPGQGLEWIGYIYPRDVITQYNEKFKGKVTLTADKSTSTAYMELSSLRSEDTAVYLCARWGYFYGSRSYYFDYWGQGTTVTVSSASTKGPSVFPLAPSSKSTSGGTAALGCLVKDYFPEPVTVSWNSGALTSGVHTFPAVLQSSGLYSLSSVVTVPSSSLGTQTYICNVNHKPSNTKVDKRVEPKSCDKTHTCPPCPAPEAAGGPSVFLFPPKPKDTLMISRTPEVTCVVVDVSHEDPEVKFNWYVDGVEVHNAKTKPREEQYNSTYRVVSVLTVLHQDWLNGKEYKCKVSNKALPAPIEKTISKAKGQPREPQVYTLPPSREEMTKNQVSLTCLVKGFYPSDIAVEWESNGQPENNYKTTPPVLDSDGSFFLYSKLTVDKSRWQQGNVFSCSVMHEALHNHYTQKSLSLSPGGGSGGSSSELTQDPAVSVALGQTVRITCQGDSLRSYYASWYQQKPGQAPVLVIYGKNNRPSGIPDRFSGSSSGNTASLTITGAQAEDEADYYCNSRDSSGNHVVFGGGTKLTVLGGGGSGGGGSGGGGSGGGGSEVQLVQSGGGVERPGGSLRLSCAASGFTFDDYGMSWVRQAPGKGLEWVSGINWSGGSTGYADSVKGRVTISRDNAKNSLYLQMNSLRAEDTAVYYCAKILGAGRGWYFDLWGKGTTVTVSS
# light: B6 light
# B8: CDH17H2/TR2v3-(IgG1 KO) (bispecific antibody)
# heavy: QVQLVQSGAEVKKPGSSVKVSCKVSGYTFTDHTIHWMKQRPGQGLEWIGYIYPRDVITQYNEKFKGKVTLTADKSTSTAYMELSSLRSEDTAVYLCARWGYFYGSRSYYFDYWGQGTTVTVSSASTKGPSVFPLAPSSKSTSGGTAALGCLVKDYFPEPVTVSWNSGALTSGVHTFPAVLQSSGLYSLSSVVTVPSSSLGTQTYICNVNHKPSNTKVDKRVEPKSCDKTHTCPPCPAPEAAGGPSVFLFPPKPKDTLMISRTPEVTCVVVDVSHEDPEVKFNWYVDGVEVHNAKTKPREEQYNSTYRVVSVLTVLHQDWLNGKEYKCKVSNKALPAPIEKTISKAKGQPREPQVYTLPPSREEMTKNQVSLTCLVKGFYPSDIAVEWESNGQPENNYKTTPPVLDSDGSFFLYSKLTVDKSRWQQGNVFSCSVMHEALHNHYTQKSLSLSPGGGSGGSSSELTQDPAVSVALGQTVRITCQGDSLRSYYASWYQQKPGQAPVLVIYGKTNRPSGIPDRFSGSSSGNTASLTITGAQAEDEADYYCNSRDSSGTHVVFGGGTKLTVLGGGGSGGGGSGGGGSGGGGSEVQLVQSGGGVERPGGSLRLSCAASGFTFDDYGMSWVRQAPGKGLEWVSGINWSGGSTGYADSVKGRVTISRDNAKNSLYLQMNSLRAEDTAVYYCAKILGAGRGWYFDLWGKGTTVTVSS
# light: B6 light
# B9: CDH17H2/TR2v6-(IgG1 KO) (bispecific antibody)
# heavy: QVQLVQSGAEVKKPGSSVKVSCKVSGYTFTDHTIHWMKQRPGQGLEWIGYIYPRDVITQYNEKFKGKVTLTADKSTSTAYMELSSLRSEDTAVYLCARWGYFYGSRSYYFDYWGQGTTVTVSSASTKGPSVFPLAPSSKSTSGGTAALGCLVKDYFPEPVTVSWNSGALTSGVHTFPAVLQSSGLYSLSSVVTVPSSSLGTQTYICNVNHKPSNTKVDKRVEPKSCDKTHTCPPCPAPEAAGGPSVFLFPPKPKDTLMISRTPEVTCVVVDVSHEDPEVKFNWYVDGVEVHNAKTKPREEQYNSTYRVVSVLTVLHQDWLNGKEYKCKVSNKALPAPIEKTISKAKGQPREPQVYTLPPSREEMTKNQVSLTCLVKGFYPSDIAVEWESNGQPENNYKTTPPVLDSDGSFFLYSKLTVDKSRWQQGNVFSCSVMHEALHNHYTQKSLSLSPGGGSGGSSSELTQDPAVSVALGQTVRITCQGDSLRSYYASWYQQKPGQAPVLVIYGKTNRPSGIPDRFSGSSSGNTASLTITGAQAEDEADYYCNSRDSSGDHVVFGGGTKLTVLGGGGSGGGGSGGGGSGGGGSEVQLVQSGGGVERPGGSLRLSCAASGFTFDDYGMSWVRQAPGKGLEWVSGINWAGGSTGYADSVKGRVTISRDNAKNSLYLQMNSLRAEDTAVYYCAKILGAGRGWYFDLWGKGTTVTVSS
# light: B6 light
# B10: CDH17H2/TR2v7-(IgG1 KO) (bispecific antibody)
# heavy: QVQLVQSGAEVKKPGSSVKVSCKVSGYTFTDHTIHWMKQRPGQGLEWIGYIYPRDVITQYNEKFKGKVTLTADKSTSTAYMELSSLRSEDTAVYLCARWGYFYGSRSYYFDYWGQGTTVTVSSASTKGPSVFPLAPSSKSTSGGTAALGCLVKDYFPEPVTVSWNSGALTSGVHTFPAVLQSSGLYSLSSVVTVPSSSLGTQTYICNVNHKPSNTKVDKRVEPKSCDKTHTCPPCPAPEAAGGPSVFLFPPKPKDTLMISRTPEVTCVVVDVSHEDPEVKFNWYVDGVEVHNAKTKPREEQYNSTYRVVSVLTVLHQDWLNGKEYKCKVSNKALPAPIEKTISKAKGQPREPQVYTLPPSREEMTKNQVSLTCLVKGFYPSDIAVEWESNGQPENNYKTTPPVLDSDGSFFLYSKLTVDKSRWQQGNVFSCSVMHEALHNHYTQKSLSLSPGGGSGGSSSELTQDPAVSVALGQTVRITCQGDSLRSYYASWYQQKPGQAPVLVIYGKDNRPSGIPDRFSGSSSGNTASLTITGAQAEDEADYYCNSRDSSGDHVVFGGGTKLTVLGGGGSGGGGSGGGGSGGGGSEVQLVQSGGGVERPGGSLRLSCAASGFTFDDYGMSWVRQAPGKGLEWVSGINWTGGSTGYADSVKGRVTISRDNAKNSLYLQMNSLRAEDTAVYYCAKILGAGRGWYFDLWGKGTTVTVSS
# light: B6 light
# B11: CDH17H2/TR2v4-(IgG1 KO) (bispecific antibody)
# heavy: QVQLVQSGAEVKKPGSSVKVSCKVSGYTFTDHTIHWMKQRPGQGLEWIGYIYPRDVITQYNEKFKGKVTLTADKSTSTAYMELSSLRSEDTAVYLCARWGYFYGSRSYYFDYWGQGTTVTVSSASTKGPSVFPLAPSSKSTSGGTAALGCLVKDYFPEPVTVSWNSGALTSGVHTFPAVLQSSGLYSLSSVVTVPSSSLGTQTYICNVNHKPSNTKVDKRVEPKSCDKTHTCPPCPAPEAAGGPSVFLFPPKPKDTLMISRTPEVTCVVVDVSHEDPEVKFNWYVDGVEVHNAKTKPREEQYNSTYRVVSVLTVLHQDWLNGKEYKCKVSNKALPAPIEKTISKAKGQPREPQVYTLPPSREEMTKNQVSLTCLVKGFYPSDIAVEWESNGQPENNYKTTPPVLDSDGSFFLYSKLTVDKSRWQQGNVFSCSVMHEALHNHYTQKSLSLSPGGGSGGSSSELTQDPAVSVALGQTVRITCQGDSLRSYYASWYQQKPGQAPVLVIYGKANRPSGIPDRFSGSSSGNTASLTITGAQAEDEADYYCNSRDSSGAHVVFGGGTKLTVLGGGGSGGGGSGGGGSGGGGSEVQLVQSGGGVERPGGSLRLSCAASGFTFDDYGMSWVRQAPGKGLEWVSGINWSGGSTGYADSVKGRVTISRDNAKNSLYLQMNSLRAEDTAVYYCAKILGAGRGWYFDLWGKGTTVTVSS
# light: B6 light
# B12: CDH17v1/TR2v1 (bispecific antibody, human IgG1, kappa)
# heavy: not shown
# light: DIVMSQSPSSLAVSVGEKVTMSCKSSQSLLHSSNQKNYLAWYQQKPGQSPKVLIYWASTRESGVPDRFTGSGSGTDFTLTITSVKSEDLAVYYCQQYYSYPWTFGGGTRLEIKRTVAAPSVFIFPPSDEQLKSGTASVVCLLNNFYPREAKVQWKVDNALQSGNSQESVTEQDSKDSTYSLSSTLTLSKADYEKHKVYACEVTHQGLSSPVTKSFNRGEC
# B13: CDH17v1/TR2v1-(IgG1 KO) (bispecific antibody)
# heavy: not shown
# light: B12 light
# B14: CDH17v1/TR2#8-(IgG1 KO) (bispecific antibody)
# heavy: not shown
# light: B12 light
# B15: CDH17v1/TR2#3-(IgG1 KO) (bispecific antibody)
# heavy: not shown
# light: B12 light
# B16: CDH17v1/TR2#2-(IgG1 KO) (bispecific antibody)
# heavy: not shown
# light: B12 light
# B17: CDH17v1/TR2#10-(IgG1 KO) (bispecific antibody)
# heavy: not shown
# light: B12 light
# B18: CDH17v1/TR2#1-(IgG1 KO) (bispecific antibody)
# heavy: not shown
# light: B12 light
# Target: T1, cadherin-17 (CDH17) (human, UniProt Q12864 23-832)
# T1 construct: whole, on cells; not detected on HepG2 cells
# Test: flow cytometry (FACS) on Colo-205 cells, antibody as primary reagent
# Protocol: TRAILR2 and CDH17 protein surface expression on the Colo-205 cells was analyzed as follows. Cells were detached using Accutase (Sigma A6964) and washed twice with FACS buffer (PBS, Gibco 14190; 3% FCS, Gibco 26140; and 0.09% NaN_3, Sigma Aldrich S2002).
# After seeding the cells, the plate was centrifuged at 1200 rpm for 5 minutes and the supernatant were discarded. Cells were then incubated for 60 min at 4° C. with 100p/well of the primary antibody appropriated dilution. Cells were washed twice with FACS buffer and 100p/well of the appropriated dilution of secondary/conjugated antibodies was added. Cells with secondary antibodies were incubated for 45 min at 4° C. in the dark. After two washes with FACS buffer, cells were resuspended in 100p FACS buffer per well and analyzed in a FACS Canto (BD Biosciences).
# Example 12: Detection of CDH17 Surface Expression Using Newly Generated CDH17 Antibodies In FIG. 13 is shown how the newly generated anti-CDH17H2 antibody (comprising a VH of SEQ ID NO: 116 and a VL of SEQ ID NO: 117 and an IgG1 sequence of SEQ ID NO: 121) is able to detect CDH17 protein surface expression. FACS analysis was performed as described in Example 6. The newly generated anti-CDH17H2 antibody was used as primary antibody for detection, followed by a secondary antibody rabbit anti-mouse IgG PE (Dako, R0439). […]
row,Binder,binding result
1,B1,binds

# Target: TNF-related apoptosis-inducing ligand receptor 2 (TRAILR2) (human, UniProt O14763 56-440)
# Test: cell-based or functional assay
Binder,"cell viability of Colo-205 cells, 24 h","concentration needed for an effect on viability of HepG2 cells (CDH17 negative), 72 h","cell viability of Colo-205 cells, 24 h (CellTiter-Glo)"
B2,0.01 nM,–,–
B3,0.01 nM,–,–
B4,0.01 nM,–,–
B5,0.01 nM,–,–
B6,0.01 nM,> 1 nM,–
B7,0.01 nM,> 1 nM,–
B8,0.01 nM,> 1 nM,–
B9,0.01 nM,> 1 nM,–
B10,0.01 nM,> 1 nM,–
B11,0.01 nM,> 1 nM,–
B12,–,–,> 1000 fold
B13,0.01 nM,–,–
B14,0.01 nM,–,–
B15,0.01 nM,–,–
B16,0.01 nM,–,–
B17,0.01 nM,–,–
B18,0.01 nM,–,–

# Target: T1, cadherin-17 (CDH17)
# Test: cell-based or functional assay
Binder,"cell viability of Colo-205 cells, 24 h","cell viability of Colo-205 cells, 24 h (CellTiter-Glo)"
B3,0.01 nM,–
B4,0.01 nM,–
B5,0.01 nM,–
B6,0.01 nM,–
B7,0.01 nM,–
B8,0.01 nM,–
B9,0.01 nM,–
B10,0.01 nM,–
B11,0.01 nM,–
B12,–,> 1000 fold
B13,0.01 nM,–
B14,0.01 nM,–
B15,0.01 nM,–
B16,0.01 nM,–
B17,0.01 nM,–
B18,0.01 nM,–
